Test [1] concerns the target T1, H7CR-GFP fusion protein on transfected CHO cells (Homo sapiens (Human), UniProt Q96BF3 23-282).
T1 construct: not shown: GFP part
T1 sequence: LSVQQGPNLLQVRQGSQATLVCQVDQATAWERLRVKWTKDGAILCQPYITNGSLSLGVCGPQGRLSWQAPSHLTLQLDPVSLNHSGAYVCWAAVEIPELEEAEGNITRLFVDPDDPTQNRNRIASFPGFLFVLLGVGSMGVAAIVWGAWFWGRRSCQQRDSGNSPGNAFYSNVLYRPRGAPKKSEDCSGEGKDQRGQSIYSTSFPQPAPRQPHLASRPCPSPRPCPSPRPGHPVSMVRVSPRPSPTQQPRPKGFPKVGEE
Nature of the test: flow cytometry, 5 µg/ml variant on H7CR-GFP transfected CHO cells, anti-hIg PE secondary antibody [row HC2-2, column LC1-3]. On the procedure: (§1) 5 μg/ml antibodies from thirty-six variants were incubated with H7CR-GFP fusion protein transfected CHO cells for 30 min at room temperature. Cells were then washed twice with 2 ml flow cytometry buffer, and resuspended in 100 μl flow cytometry buffer. 1 μl anti-hIg PE secondary antibody (Biolegend) was added and incubated with the cells for 15 mins Samples were then washed and resuspended in 100 μl flow cytometry buffer. Flow Cytometry data was acquired using BD Canto (BD Biosciences) in plate format and analyzed by FlowJo software.
Background: Flow cytometry measures light scatter and fluorescence of single cells or particles in a stream.

Test [2] addresses T2, human H7CR (B7-H7 counter-receptor) (human, UniProt Q96BF3 23-282).
T2 construct: Used for H7CR on CHO.hH7CR transfectants, human T cells and tonsil tissue; also called B7-H7CR; CD28H
T2 sequence: T1 sequence
Put plainly: binding to human H7CR as endogenously expressed on the surface of a cell.

For test [3], the target named is T1, H7CR-GFP fusion protein on transfected …. Nature of the test: flow cytometry, 5 µg/ml variant on H7CR-GFP transfected CHO cells, anti-hIg PE secondary antibody [row HC2-2, column LC2-2]. On the procedure: as §1
Test [4] shares this target. Nature of the test: flow cytometry, 5 µg/ml variant on H7CR-GFP transfected CHO cells, anti-hIg PE secondary antibody [row HC2-3, column LC1-1]. On the procedure:
as §1

For test [5] the target is unchanged. Nature of the test: flow cytometry, 5 µg/ml variant on H7CR-GFP transfected CHO cells, anti-hIg PE secondary antibody [row HC2-2, column LC2-3]. The protocol:
as §1

Test [6] has the same target. Nature of the test: flow cytometry, 5 µg/ml variant on H7CR-GFP transfected CHO cells, anti-hIg PE secondary antibody [row HC2-3, column LC1-3]. On the procedure:
as §1

For test [7] the target is unchanged. Put plainly: flow cytometry, 5 µg/ml variant on H7CR-GFP transfected CHO cells, anti-hIg PE secondary antibody [row HC2-3, column LC2-1]. On the procedure: as §1
For test [8] the target is unchanged. Nature of the test: flow cytometry, 5 µg/ml variant on H7CR-GFP transfected CHO cells, anti-hIg PE secondary antibody [row HC2-3, column LC2-3]. The protocol: as §1
Test [9] shares this target. Put plainly: flow cytometry, 5 µg/ml variant on H7CR-GFP transfected CHO cells, anti-hIg PE secondary antibody [row HC2-3, column LC2-2]. On the procedure: as §1
Test [10] has the same target. Put plainly: flow cytometry, 5 µg/ml variant on H7CR-GFP transfected CHO cells, anti-hIg PE secondary antibody [row HC2-2, column LC2-1]. On the procedure: as §1
Test [11] shares this target. Nature of the test: flow cytometry, 5 µg/ml variant on H7CR-GFP transfected CHO cells, anti-hIg PE secondary antibody [row HC2-3, column LC1-2]. On the procedure:
as §1

Numbering of substitutions follows the chain as printed.

B1: 4.5 humanized variant 27 (HC2-2 / LC1-3) (antibody, V domains shown)
VH: QITLKESGPTLVKPTQTLTLTCTVSGFSITTGGYYWNWIRQPPGKKLEWLALIYTSGRTSYNPSLKSRLTITKDTSKNQVVLTMTNMDPVDTATYYCADMADKGGWFAYWGQGTLVTVSS
VL: DIVMTQSPDSLAVSLGERATINCLSSQSLFSSNTKRNYLNWYQQKPGQSPKLLIYHASTRLSGVPDRFSGSGSGTDFTLTISSLQAEDVADYFCQQHYETPLTFGDGTRLEIK
notes: Variable domains only; detected with anti-hIg secondary; also called VH2B / VL1C
Regarding B1, the binding result in test [1] and in test [2] was “binds” throughout.

B2: 4.5 humanized variant 29 (HC2-2 / LC2-2) (antibody, V domains shown)
VH: B1 VH
VL: DIVMTQTPLSLPVTPGEPASISCRSSQSLFSSNTKRNYLNWYLQKPGQSPKLLIYHASTRLSGVPDRFSGSGSGTDFTLKISRVEAEDVGDYFCQQHYETPLTFGDGTRLEIK
notes: Variable domains only; detected with anti-hIg secondary; also called VH2B / VL2B
On to B2, for which the binding result in test [2] and in test [3] was “binds” in each case.

B3: 4.5 humanized variant 31 (HC2-3 / LC1-1) (antibody, V domains shown)
VH: B1 VH with T3Q, L50M
VL: B1 VL with L24K, N40A, S49P, L61E, D91V, F93Y, D106Q
notes: Variable domains only; detected with anti-hIg secondary; also called VH2C / VL1A
In the case of B3, the binding result in test [4] and in test [2] was “binds” each time.

B4: 4.5 humanized variant 30 (HC2-2 / LC2-3) (antibody, V domains shown)
VH: B1 VH
VL: B2 VL with L9S, R24L
notes: Variable domains only; detected with anti-hIg secondary; also called VH2B / VL2C
For the molecule B4, the binding result in test [5] and in test [2] was “binds” throughout.

B5: 4.5 humanized variant 33 (HC2-3 / LC1-3) (antibody, V domains shown)
VH: B1 VH with T3Q, L50M
VL: B1 VL
notes: Variable domains only; detected with anti-hIg secondary; also called VH2C / VL1C
Consider B5, for which the binding result in test [6] and in [2] was “binds” throughout.

B6: 4.5 humanized variant 34 (HC2-3 / LC2-1) (antibody, V domains shown)
VH: B1 VH with T3Q, L50M
VL: B2 VL with N40D, K51Q, T59Y, L61A, D91V, F93Y, D106Q
notes: Variable domains only; detected with anti-hIg secondary; also called VH2C / VL2A
As to B6, the binding result in test [7] and in test [2] was “binds” throughout.

B7: 4.5 humanized variant 36 (HC2-3 / LC2-3) (antibody, V domains shown)
VH: B1 VH with T3Q, L50M
VL: B2 VL with L9S, R24L
notes: Variable domains only; detected with anti-hIg secondary; also called VH2C / VL2C
In the case of B7, the binding result in test [8] and in [2] was “binds” each time.

B8: 4.5 humanized variant 35 (HC2-3 / LC2-2) (antibody, V domains shown)
VH: B1 VH with T3Q, L50M
VL: B2 VL
notes: Variable domains only; detected with anti-hIg secondary; also called VH2C / VL2B
In the case of B8, the binding result in test [9] and in [2] was “binds” in each case.

B9: 4.5 humanized variant 28 (HC2-2 / LC2-1) (antibody, V domains shown)
VH: B1 VH
VL: B2 VL with N40D, K51Q, T59Y, L61A, D91V, F93Y, D106Q
notes: Variable domains only; detected with anti-hIg secondary; also called VH2B / VL2A
Consider B9, for which the binding result in test [10] and in [2] was “binds” each time.

B10: 4.5 humanized variant 32 (HC2-3 / LC1-2) (antibody, V domains shown)
VH: B1 VH with T3Q, L50M
VL: B1 VL with L24K, S49P
notes: Variable domains only; detected with anti-hIg secondary; also called VH2C / VL1B
B10: the binding result in test [11] and in test [2] was “binds” in each case.
